In the RNAGym collection of RNA variant scans (doi:10.1073/pnas.2313332121):
Fewer inactive variants are shown than the library holds.

B1: TPR 5TU (parent)
chain: GGAUCUUCUCGAUCUAACAAAAAAGACAAAUCUGCCACAAAGCUUGAGAGCAUCUUCGGAUGCAGAGGCGGCAGCCUUCGGUGGCGCGAUAGCGCCAACGUUCUCAACUAUGACACGCAAAACGCGUGCUCCGUUGAAUGGAGUUUAUCAUG

Variants of: B1
Experiment: polymerase ribozyme fitness, log enrichment relative to wild type (log ratio); higher = more active; in vitro selection for triplet polymerase activity
How it was run: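 The heterodimeric triplet polymerase ribozyme's subunits were each mutagenized into PCR-built libraries and transcribed. Every library was selected once, in triplicate, by annealing with a biotinylated primer, the partner subunit and triplets, incubating frozen at −7 °C, gel-excising extended constructs, capturing on streptavidin beads and running RT-PCR. Input and output libraries were Illumina-sequenced, with genotypes kept only at ≥10 input reads and ≥1 read per output. Fitness, from inverse-variance-weighted replicate averages, is the base-2 logarithm of genotype enrichment over wild-type enrichment.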

Variant	polymerase ribozyme fitness (log ratio)
A17U A98U	-1.12
A29G G94U C114U G128A	≤ -4.2
A137G G143C	-3.85
A52U U82C G92U C116G A121U	-3.06
G83U C85A	-3.55
A91U U111G U127C	≤ -4.2
G11U A30U C95U C99U	≤ -4.2
A22U C85U U134G G143C C149A	≤ -4.2
C87G G100C	-3.97
G83C U101A	-1.07
A41C U53A C79A C108U A147C	≤ -4.2
A24C A39G	-3.42
C5U C14G G59C C63U C85U U101G	-3.47
C14G U53G U77G A91U	≤ -4.2
G94A A119C C132G A138U	≤ -4.2
G50A G92A U101G G117C	-3.96
C10G G84U	-3.9
G34U C76U C87U G124U	≤ -4.2
A28G G46A U55G C57A A73U C96A	≤ -4.2
U55A A97G	-0.39
A29G G86U U102G U134G G140U C149A	≤ -4.2

Variant	polymerase ribozyme fitness (log ratio)
G83A C132U	-0.931
G11U C85A G86U U134G A150G	≤ -4.2
A26U A30C A49G G92C	≤ -4.2
C35U G81C U109G C116U	-3.18
A47C A52G U53A G86A G94C	≤ -4.2
U31G C93U C99U C116A A119G A142C	≤ -4.2
G48A G70A U78G G84U G143U	≤ -4.2
A37G G84U	-3.14
A3C G83A G136C	-3.35
A47G C85U A138G	-4.18
C5U G81U C87A A107G U144G	≤ -4.2
C14U A16G U56A	-2.11
A19U C57U G81C C93G C125A	-3.42
A47U C93U C96U G152A	-3.95
U6G A98U	-0.985
G11A C85U U130G	≤ -4.2
C57G A110U C123A	-4.11
A49U A52C G59A A73U C76G G84U	≤ -4.2
A121U U135A	-0.658
A22U A24U G141U	1.41
A19C A28C A52G U56A G83A A142C	≤ -4.2

Variant	polymerase ribozyme fitness (log ratio)
A16C A40C G80A G92U A113G U135C G140A	≤ -4.2
C96U A110G C114U A142G	-4.07
A47G	0.239
A66G A97U	≤ -4.2
C27A C36G A91U C99U	≤ -4.2
A73G G88A G124C	≤ -4.2
A39U U127C	-4
C35A C69A C99U U127C	≤ -4.2
A29G C85A C114A A121G U134C	≤ -4.2
A52G G83C	-2.18
G58C C96U G128U	-3.69
U53A C85G	-3.15
A24C G48A G84U A106U A142U	≤ -4.2
C85G G92C G128A	≤ -4.2
G50A C51U U55G G84A G128A C131G U135C	≤ -4.2
A17G C76A A119U	-0.0837
G11C C54U G62A A121U	-2.2
A12G U55A G84A G117U	-0.697
G58C C75U C95U C99G U135C	≤ -4.2
U90G G92C	≤ -4.2
G83A C118U G126A	-2.89

Variant	polymerase ribozyme fitness (log ratio)
A16G A20C A22C C32G A66G C118G G126A C132A	≤ -4.2
G46C G68A	-4.14
U55G G86U C95U	-0.739
A20C C96U A142C	-1.62
C27G U33C U55A A97C A121G	≤ -4.2
C35U G59A	0.0486
U55A U148A	-3.84
C5A C96A G143C	-3.53
A52C U55A A60C C76U G83A C85U C129G A150G	≤ -4.2
U55A C85A U102A	≤ -4.2
C96G G124A	-0.441
C51U G59C	0.723
G92U C99G	-1.57
A19U U56A G86A A107G	≤ -4.2
C87U U104A	-0.828
A28U G88C A91U C118A	≤ -4.2
C5A C54U	0.00554
A52U C85U C96A C116U	-2.69
C10A C51G A52C G59A C75G	≤ -4.2
A47G G88A C96U A120G G143A	≤ -4.2
